Test: soluble on expression in E. coli; label from the status in PepcDB or PDB records

Row | Sequence | soluble on expression in E. coli
1 | MGSDKIHHHHHHVMKVLLYSEGKKLFSKSGVGIALKHQMSALDKVGVKYTTNEEDSFDIVHINTIGPGAERVIKKSKKLGIPIIYHTHTTYEDFRNSFTLSNAIAPWLRKRLIKLYSSADFLISPTEYAKKLIMNYGITLPIKAVSNGVDNKKFTRSKSLAESFLSENHIRKPLVVSVGLPFERKGVIDFCQIADTRKDLTFYWFGAKISSLLPAKIRRLLKNPPDNVKFPGFIPQEMIIGPYSACDVFLFPSYEETEGIVVLEALATEAPIVLRDIPVYSEWMKHEENCLKGKDNQEFIKHIDRLLESNNLRKKLSSCGKETALERDLSIIGQKLKNIYLEVLDKKQ | not soluble
2 | MFEAKLANAGLLKKIVESIKDLVTDAPFDCSETAMSLQAMDSSHVALVSLKLEVGLFDTYRCDRTINLGLSLANMSKALKCANNDDTCMLKYEENEGDSIIFTFADPKRDKTQDVTVKMMDIDSEHLGIPDQDYAVVCEMPAGEFQKTCKDLSTFSDSLNITATKAGIVFTGKGDIGSSVVTYSPSSNTDDETEAVTLEVKDPVNVNFSIKYMNQFTKATALSDRVRLSLCNDVPVVVEYPIEENGYLRFYLAPKIDDDENMD | soluble
3 | MTKKCPKCGNEFDAELTTCPTCGYSLTDTTVDKEEAETTSTNIDFETQENEEHEDQLNENIEWSELKDMSLGHVMELFGESPEEESNDDKKEESTEDNLIVSDSEDVSGLEASLQEGASEETHDSVEESIPATEETPTHSTEEKLATDEAVNLEETTEETTEETTTVEAETAEVSETVKSEEEALTEISGTEVISTTSEEEIFSQPPIEDQDVTPNETLQAYIQAHRADTEMSENPSEETAETQELENSGEAVLTQAETPTESISDSEEGLTSAASLEAPSDADATEGKVSDSGVIPPMNETGNAQPAPAPKKPSKKVVFVALAVVLLAGGSAWAYHDQTQKAAAQEAAALTKKTDTLKDELAAFYTTKEQVFIKPDMVTVSPEKLSKQVAEIKDSEEYSQLNKQIQTLKEKQQTIQQINQLFEAPIVNGNELKPAILAADQPISVKKLTGNDPFDQLMNQAIDQANQQYNQLQKAKKAVEVIYKDGKTTNQLNRDTYQAAKAEVDKVTSDKLKKELVKQVTTADQALTKVEEEQKRIAEEQAAAEQAKQAEEQAKQAAAAKKEDAKKEETAKTEANGYTAPNSDGVYTSPLYAPDAADIADSSNPAWTWAPGVKEKVLDTVIARGYVVPGGYSLEPAKIVNGEGYYNLYATNNQSKLLEGTTEKNVHMYLVTINAKTGWFKGNASRNAGQ | not soluble
4 | METKILYQKVSADLKRRILDGDYEVGGLIPSEGELERYYQVSKITIRKAVEVLVSEGYLEKKSGIGTRVISNDLFNKLTQTQSFTATVGQQGKLTKELIKIERVPAVPALLPSESQGTMLRIKRRYLLDGKPFAVVDHYLPNTLVPTKLTALRHRSLYKILQENGQTITHFQDKFSAVTLADSERALLESQTPLAIRRERKGYDGHQRLVEFSIATYQTDVVPYQINYDVL | not soluble
5 | EVQLLESGGGLVQPGGSLRLSAAASGFTFSTFSMNWVRQAPGKGLEWVSYISRTSKTIYYADSVKGRFTISRDNSKNTLYLQMNSLRAEDTAVYYVARGRFFDYWGQGTLVTVS | soluble
6 | MGSDKIHHHHHHMQEIHTIMKHMDALIADPSAAAFKATLPFAELLEKLHNKKALFDAALAKSAERADAGRIIGKTSHIDALAYLLDISKSEAFRRTKRAEEHYGNPSPEPSSEELAKETPEEKLAREEKEKQDLAEQAEANRIAREHGISAEKQDTIRYELEKLNDNTSLSRASLRKLAMQEATSRTPEDLRNWTRNKVIRINPTAKDPLAAVKKRSLSIGRQDHDGGAKASLYLDAKGLALLKSLMSKAKPGHLLEDSLAEDKRTKPQRQYDAFADILHRAHSDLLPARSGVGTILVSLSAKDVTNLKASGPDHRYPTSTGIKLTPLEILRLGAAKYDFVTVLDSESGRPLHLARTQRTASLYQRLALFASELVCTREGCDSPFEDNEIHHIRSWLDGGPTDIENITNICPHDHGNNNDQRDGKDNMGHMNIDPTTGRVGYQPADRRKPMRFNNTAAAAESGGAQART | not soluble
7 | MGSDKIHHHHHHMLADLPIALNPHEPTSIPTQLTEQIRRLVARGILTPGDPLPSSRSLSTQLGVSRGSVVTAYDQLAGEGYLSTARGSGTTINPDLHLLKPVEIEKKETSRSVPPPLLNLSPGVPDTATLADSAWRAAWREACAKPPTHSPEQGLLRLRIEIADHLRQMRGLMVEPEQIIVTAGAREGLSLLLRTMDAPARIGVESPGYPSLRRIPQVLGHETIDVPTDESGLVPRALPHDLNALLVTPSHQYPYGGSLPADRRTALVAWAEANDALLIEDDFDSELRYVGMPLPPLRALAPDRTILLGTFSSVITPQVACGYLIAPTPQARVLATLRGILGQPVGAITQHALASYLASGALRRRTQRLRRLYRHRRSIVQDTLGDLPNTQLRPINGGLHAVLLCDKPQDLVVTTLASRGLNVTALSHYWGGTGADNGIVFGFGSHDEDTLRWVLAEISDAVSLG | not soluble
8 | MGSDKIHHHHHHMKIAQIAPLTESVPPKLYGGTERVVSYITEALVDLGHDVTLFASGDSVTNAKLEAVWPRALRLDPGIRDRVAPHMLLMELVRRQAENFDVLHFHLDYYSFSVFKRQETPFVTTMHGRLDLPEQQPVFDTFNTAPVISISNAQRHPLPQARWLTTVYHGLPEQLYTPQPVEQKYLAFLGRISPEKRVDTAIRIAGRCGMPIRIAAKVDAADREYFERDIRPLLDLPYVEFIGEIADHQKAEFLSGAHALLFPIDWPEPFGLVMIEAMACGTPVIAFNRGSVPEVLEDGVTGFIVEDEIGAVAAVNRLHKMPRAGVRQRFEERFTSHRMAQQYVNAYQSVIRAQKRSRFKVIDTSGS | not soluble
9 | MTALPLSAVTVVSVCYNSDRLIRDLVTAIPDETPIILVDNGHTNTFADLPPHRNVIIVKLDHNLGFGRGCNAGADVAQTPWILFLNPDARLNPGAIEGLLQAAAQYPSAIAFNPRIYNEDGSPYFKRRSWLLPRQHYMKKGWPSADAVVPVLSGAALFVSKKSFDYIGGFDPSIFMYHEDDDLSLRLSALGELRFVRNSTVVHFAGYSSGRSPEIARFKAYHMAQSKIYAGQKHHRPFAKTSTLLQGCLLLLSPHVFFSARRRAKALGFLHGALAKIWSELLNAASTSSQKKT | soluble
10 | MTLLRVGGVPEPFNEIFMQAQEGALPSTKLQVEFLGVAGGSGAALEMLAKCELDVAVTLTESAVARTKAAASGLAVHSVYVASPLAWGVAVSSKKTDWTDLNSLDAAVLRGESIRAGFSRRGSGSHLLLSVFASDRGWISTGIQNDILKSFECGSFDGLIQAAVAGDIDMFLWETCFTKECAATRQGLIRLVGEYAPSWPAFVLVCRDDAHVRAAVSELKREIEPLQRKFCTGEGLDILQNKYGFSLESAKLWLSRLQFAEPDEALSAEQWRSVERALELTAGSRSSSR | soluble
11 | CKLCLGEYPVEQMTTIAQCQCIFCTLCLKQYVELLIKEGLETAISCPDAACPKQGHLQENEIECMVAAEIMQRYKKLQFER | soluble
12 | MSRLTELLRQVRKADAQLGTDLEAEVAALTKRRTFGLVFEQHQPEAVELPGRVVRRGDKVRVLPPRGGTKAGDQRLWRTTRIECVDGQRVAHLAELDVEEPETRAVLADDVVVVAEFRDRIYPGLVETGRVERGGDKPFHTVVNAENYHALEMLTYTHRHSIDAIYIDPPYNTGARDWKYDNDYVASDDDYRHSKWLAFMERRLKICRELMRSDATLVATIDEHEVNRLGVLLDQLFPESTRQLVTIVNNPKGVTQGYLSRVEEYAFFVFGPDARIGSVDDDLLTHRDMADAEGELQRPRWKGLLRSGDDSLRADRKDMFYPVWFDESTGRLSHAGEALPLDETPDFSPQDGLTPIWPIRRDMKEGPTRAAPRRSILDYALHPHL | not soluble
13 | SLIMRYADSGLCGTVSQNMADARTRAESTDLSETSPDE | soluble
14 | MSLSTLRIAMTAADIPLTLGQPDQGYEGNRFTGIPLYDALVEWDLSQGEKPSGLVPGLATEWHIDPQNTSRWIFTLRPGVKFHDGTEVNADAIVWNVDKVLNKAAPQYAPGQIGNTLSRMPTLTGAEKIDDHTVALTTSEPDALLPYNITNLFIVSPTAWQKQYDAVPASVGDSAARSKQAWTAFAAHAVGSGPFKLEKLVPRQQLILDKNPDYWNKDRIPRVDKVVLIPLPEANARTAALLSKQVDWIEAPAPDAIDQIKSQGFHLYANTQPHLWPWQFSFEKGSPWQDIRVRKAANLCLNRAELKSYLGGYMTEATGVYEADSPWHGKPTFQIKYDPDVARQLMTEAGYSASKPLHVTVATSASGSGQMQPLPMNEYIQQSLKSCFFNVDIKVVEWNTLFTNWRLGARDPSAKGIDAINVSAAVNDPYFGLIRFSTAKAFPPVATNWGYFSTPETEKLAAAVKHAFTPAEMNKAAGELHAALVDQVPFLFVAHDVGPRAISPAVTGVVQPQSWFIDLSLVSKKEGHHHHHH | soluble
15 | MSLYIDGTFSYSLYRKICTDRSAVNKASNTQESSVAKPSIIKTSENPLQTIEVEVYDEYGEKLVKSIACERPLTVLLNWKEIVTLMTLGSRPEALVLGYLKNQSFISDPEALDSIIIDWETHSAAVVTRENIDHLEPALKKKTVTSGCGQGTMYGNVMKQLEHYQVPQQPIKQSQIYAALEALTHYNDTYKKAGAVHGCAICQEDRVLSFVEDVGRHNAVDTLAGEMWLNGMRGDDKIFYTTGRLTSEMVIKVAQMGIPVLLSRSGVTQMGLELAQRFGITTIARASGRRFHVYSGADKMVFDVKGHSEEAEGHHHHHH | soluble
16 | MKCTECSHEAGVSSFRYLYNARIDAPITLRQCPQCQAWLAVDEMAGEARQRVDAGEAPWGKSAGIEGLAEDAR | not soluble
17 | MNSQTTKDIPCFRSYLPDALRLRFEDKLTIRAIAQRLGLSHSTIHTLFQRFLASGIAWPLPDSVSFAQLDAILYANRKKELTEPQIREGSWRKERRTSYSREFKVRLAKQALQPGAVVARIAREHDINDNLLFKWKSQYEDGLLSDDDIQECMPVPVALTDTPEPTRPVTNPFWRNKHDERPEGAPGNVPRCELHLKSGVVKLFDPLTPELLRALIREMKGGIRLEHHHHHH | soluble
18 | MVMNAILKKTHFSTAEYLADLAVQALIDEVNLTPKPALVDRRGGGAHDDLNLELMEKSAYSLFPMFKAMAEAAEIHGEVNQALREDIGQLGRQGEQRMLQVTHGINTHRGAIWSIGLVLTATALTLYKQEPCLITEICKTAAEIALLEDRFIPKQQFSHGQMVRQKFGINGAKQQAQQGFPIILEFGLVQLQCSRALNTTETEARLNALLAMMAELSDTCVVHRAGLDGLNMMQSGAREVLQLGGCSTNEGQQRLEQLEQNLLRIRASAGGAADLLATLLFLDQAEQHNSSAPQGRRNQWKY | not soluble
19 | EHLPKLQPRPYSCASSSLFHPGKLHFVFNIVEFLSTATTEVLRKGVCTGWLALLVASVLQPNIHASHEDSGKALAPKISISPRTTNSFHLPDDPSIPIIMVGPGTGIAPFIGFLQHREKLQEQHPDGNFGAMWLFFGCRHKDRDYLFRKELRHFLKHGILTHLKVSFSRDAPVGEEEAPAKYVQDNIQLHGQQVARILLQENGHIYVCGDAKNMAKDVHDALVQIISKEVGVEKLEAMKTLATLKEEKRYLQDIWS | soluble
20 | MRAFYSTTEEISALFAKQQEQLKTMQRTLEDEDNCDNTSLDIDLNPINRSPNRANTQGDKRATSHLNFAARASSSTSGQRSTRNEVVDTSCEDADATQKHDCEIMSQEGQNTQEAEYPSSDKVAKGGFGSDIEGIGTAPTSGTDPVGTEQVNETQSPGNDYERNDHLRKSIILAGDTMQIDCETQVHESVQIEGAVLLLRNPNDRRDTQDIEGVGTIGTSDLLASEVAGSWANSTNPSVHGENETERSREDEESQTQKIKEVTIVQDSAGQIGESQTKPTSPGVLVTNKDDAERGVINEPVGITDQGKIKHGTRSDSETESCSDSDDDHEKEKHNPVSDSDTEGSDMNDDKGSLSSDPDTERSHEVDGDQKKQVDTMDEDDKAT | soluble
21 | MDPLRAQQLAAELEVEMMADMYNRMTSACHRKCVPPHYKEAELSKGESVCLDRCVSKYLDIHERMGKKLTELSMQDEELMKRVQQSSGPA | soluble
